Data reported in the RNAGym collection of RNA variant scans (doi:10.1073/pnas.2313332121).
This sample holds only a part of the variants without activity.

B1: TPR 5TU (parent)
chain: GGAUCUUCUCGAUCUAACAAAAAAGACAAAUCUGCCACAAAGCUUGAGAGCAUCUUCGGAUGCAGAGGCGGCAGCCUUCGGUGGCGCGAUAGCGCCAACGUUCUCAACUAUGACACGCAAAACGCGUGCUCCGUUGAAUGGAGUUUAUCAUG

Variants of: B1
Experiment: polymerase ribozyme fitness, log enrichment relative to wild type (log ratio); higher = more active; in vitro selection for triplet polymerase activity
Procedure, shortened: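 The heterodimeric triplet polymerase ribozyme's subunits were each mutagenized into PCR-built libraries and transcribed. Every library was selected once, in triplicate, by annealing with a biotinylated primer, the partner subunit and triplets, incubating frozen at −7 °C, gel-excising extended constructs, capturing on streptavidin beads and running RT-PCR. Input and output libraries were Illumina-sequenced, with genotypes kept only at ≥10 input reads and ≥1 read per output. Fitness, from inverse-variance-weighted replicate averages, is the base-2 logarithm of genotype enrichment over wild-type enrichment.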

Variant | polymerase ribozyme fitness (log ratio)
G74C A97U C132A G141A G143C | ≤ -4.2
C76U A97G G100A A142G | ≤ -4.2
G74U A97U | -4.18
C76U C85G A147C | -0.612
C75U A91G U104A U139A | ≤ -4.2
A73U C118U | -0.982
C76A U104C | -3.57
C72U G83A C93U U111C A120U G143U | ≤ -4.2
C76U A122G | -0.0921
A73C C96G C118U G143U | ≤ -4.2
C75U C96G | 0.716
C76A C85A | -1.96
C76A C85U | -0.443
A73G G86A | -2.14
C76G G88C | ≤ -4.2
A73G G126C | 0.529
A73G G126U | -0.214
C75U C85U G86C | -1.49
A73U G81U A106G A115G A119U A147C | ≤ -4.2
C72U G86C C105A C114U G140U | ≤ -4.2
C75G U77A A91G A106U U134G | ≤ -4.2

Variant | polymerase ribozyme fitness (log ratio)
A73U G80A C93U U146G | -3.03
A73C A91G C116U | ≤ -4.2
A73G C114U | -2.66
C76A U145C | -0.484
G74A A106C A142C | ≤ -4.2
C76A U135C | -1.96
A73G G84U | -1.29
C72U U145A | 0.261
A73U G86U | -4.19
C76A A138U | -4.05
C76A G92A U134C | -3.62
C75A C96U A97C | ≤ -4.2
C72A U77A G88C C93G U111G A137U U139G | ≤ -4.2
G74A A150U | -2.61
C76A C93A | -3.88
C75U G80C A91G A97U A122G | ≤ -4.2
C76G C103G U104G U135C | ≤ -4.2
C75U G84U | -2.45
A73G C99U | -0.979
C76A C105U | -2.47
C75A C76U G86U A106U G126A U148C C149A | ≤ -4.2

Variant | polymerase ribozyme fitness (log ratio)
A73C G86C U104C | ≤ -4.2
G74U C85G | ≤ -4.2
C75U C96A G128U | -3.56
C76U A89G | -1.03
C72U C93G A106G A121U | -2.98
A73G U104C | -0.284
C72U G86A C95A A97G A98U U104A A122U | ≤ -4.2
C76A C85U G140C | -3.97
C75U A122G G124A C149U | -1.15
C76A G152A | -2.86
C72G A89G G92A C114G | ≤ -4.2
A73G C93U A110U | ≤ -4.2
C76G G84A C118A G141C | ≤ -4.2
C75U C95G C96G | -3.09
C75G A142U | -3.7
C75G G81U G84C A137U U146C | ≤ -4.2
C75U G94C G100U A107G | ≤ -4.2
A73U C103G | ≤ -4.2
C72U G152A | -2.42
C76A C87U G92C A142G | ≤ -4.2
C75U C85A | -1.84

Variant | polymerase ribozyme fitness (log ratio)
C75U C85U | 0.543
C75U G92U G112C A113U C114G | ≤ -4.2
C76A C87U A142G | -1.46
G74C A89U U146C | ≤ -4.2
A73U C105G | -3.79
C76A U82G C96U | -0.697
G74C G92U | -4.02
A73U U90G G117U G133U | ≤ -4.2
G74A A91U G117U G141U | ≤ -4.2
A73C A121U G133U | ≤ -4.2
C75U U145C U146G | -0.419
A73G C93A A110C U139A | ≤ -4.2
C75U U78C G84A | -1.65
C72U C93G U130C G133C | ≤ -4.2
C72U C96G U127C C131U G140U U151A | ≤ -4.2
A73G U145G | -0.0134
C76G C87G U90A A121C A122U | ≤ -4.2
A73U G92U G141A U145A | -3.24
C75G G92U C103G A122C | ≤ -4.2
G74C U82C | -4.05
C72U G128U | -3.1
